Reference: US20240131162A1

Target: HER-2 (human) (UniProt P04626)
Experiment: SPR (BIAcore), HER-2 immobilised, antibody as analyte

- koff: 6.3e-06 s⁻¹
- kon: 110000 M⁻¹ s⁻¹
Substance: ch4D5 (antibody)
